Data from patent publication US20230227576A1 (published 2023).

Molecular target: carcinoembryonic antigen (CEA) (Homo sapiens (Human), UniProt P06731)
Assay: cell-based or functional assay

- IL-2 secretion (ELISA): 4.6 ng/mL
B1: MFE23 CD28(IEV) truncated CoStAR (CAR)
chain: QVKLQQSGAELVRSGTSVKLSCTASGFNIKDSYMHWLRQGPEQGLEWIGWIDPENGDTEYAPKFQGKATFTTDTSSNTAYLQLSSLTSEDTAVYYCNEGTPTGPYYFDYWGQGTTVTVSSGGGGSGGGGSGGGGSENVLTQSPAIMSASPGEKVTITCSASSSVSYMHWFQQKPGTSPKLWIYSTSNLASGVPARFSGSGSGTSYSLTISRMEAEDAATYYCQQRSSYPLTFGAGTKLELKRIEVMYPPPYLDNEKSNGTIIHVKGKHLCPSPLFPGPSKPFWVLVVVGGVLACYSLLVTVAFIIFWVRSKRSRLLHSDYMNMTPRRPGPTRKHYQPYAPPRDFAAYRS
